The values below are quoted from earlier work in publication PMC9369280.

Among the targets are FGF-1 (Homo sapiens) (UniProt P05230); FGF-2 (Homo sapiens) (UniProt P09038); FGFR2 (Homo sapiens) (UniProt P21802).
Experiment in all cases: SPR

Chain of UniProt P09038 (P09038 143-288): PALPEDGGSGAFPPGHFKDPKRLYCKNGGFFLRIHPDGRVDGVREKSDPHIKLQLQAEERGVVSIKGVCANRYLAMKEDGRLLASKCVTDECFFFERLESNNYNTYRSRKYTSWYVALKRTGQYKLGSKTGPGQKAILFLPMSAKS
Chain of UniProt P05230 (P05230 16-155): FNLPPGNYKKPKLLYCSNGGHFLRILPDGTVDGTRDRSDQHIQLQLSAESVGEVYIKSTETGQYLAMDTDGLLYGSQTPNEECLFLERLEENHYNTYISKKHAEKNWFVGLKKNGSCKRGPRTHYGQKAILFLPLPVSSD
Chain of UniProt P21802 (P21802 22-377): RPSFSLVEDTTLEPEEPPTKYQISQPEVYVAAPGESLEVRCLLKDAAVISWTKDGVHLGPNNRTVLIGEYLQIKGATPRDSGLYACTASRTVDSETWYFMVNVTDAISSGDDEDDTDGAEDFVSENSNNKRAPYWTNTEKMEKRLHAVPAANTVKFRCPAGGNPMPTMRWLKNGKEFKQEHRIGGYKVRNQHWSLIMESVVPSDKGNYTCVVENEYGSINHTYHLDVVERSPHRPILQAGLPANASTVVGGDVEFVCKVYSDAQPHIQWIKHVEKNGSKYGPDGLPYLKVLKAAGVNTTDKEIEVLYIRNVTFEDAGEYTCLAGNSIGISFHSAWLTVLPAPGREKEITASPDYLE

For CCN2 (from UniProt P29279), the Kd – broadly, the free concentration of one partner at which half of the binding sites on the other are occupied at equilibrium, for simple one-to-one binding – is 3.98 nM with FGF-1 (Homo sapiens), 5.5 nM with FGF-2 (Homo sapiens) and 7.91 nM with FGFR2 (Homo sapiens).
